Test results: publication PMC9352680, “A comprehensive thermodynamic model for RNA binding by the Saccharomyces cerevisiae Pumilio protein PUF4”
Changes are numbered by the printed parent chain. In names and notes the source's numbering stands.

T1: PUF4 RNA-binding domain (Saccharomyces cerevisiae, UniProt P25339 537-888)
T1 sequence: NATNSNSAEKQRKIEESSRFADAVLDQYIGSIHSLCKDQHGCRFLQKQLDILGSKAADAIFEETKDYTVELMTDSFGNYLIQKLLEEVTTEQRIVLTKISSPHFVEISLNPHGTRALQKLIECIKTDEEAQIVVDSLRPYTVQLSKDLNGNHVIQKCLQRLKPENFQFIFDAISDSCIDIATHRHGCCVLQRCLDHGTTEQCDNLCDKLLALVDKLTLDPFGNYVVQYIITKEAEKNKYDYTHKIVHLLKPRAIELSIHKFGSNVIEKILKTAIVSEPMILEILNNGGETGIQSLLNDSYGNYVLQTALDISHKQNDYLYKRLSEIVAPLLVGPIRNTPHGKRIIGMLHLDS

B1: Id_iii_S2_P5E.5_K5.1_C5.3_H5.1_A5.1_F5.1_T5.2_[T11A] (ssRNA)
RNA: UUUGAUUAAUAUGAUAUCGUUCUUUCUUCUUGUAUUAUUAAAUUCUUUCUCGAUAUCAUAUUAAUCUUU
B2: Id_iii_S2_P5E.5_K5.1_C5.3_H5.1_A5.1_F5.1_T5.2_[A12G] (ssRNA)
RNA: B1 RNA with A41U, A42G
B3: Id_iii_S2_P5E.7_K5.3_C5.3_[T-3A]_H5.3_A5.1_F5.1_T5.2 (ssRNA)
RNA: B1 RNA with U28A, U31A, G32C, U33A, A34C, A41U
B4: Id_iii_S2_P5E.5_K5.1_C5.3_H5.1_A5.1_F5.1_T5.2_[A12C] (ssRNA)
RNA: B1 RNA with A41U, A42C
B5: Id_iii_S2_P5E.5_K5.1_C5.3_H5.1_A5.1_F5.1_T5.2_[A12T] (ssRNA)
RNA: B1 RNA with A41U, A42U
B6: Id_iii_S2_P5E.6_K5.2_C5.3_H5.2_A5.1_F5.1_T5.2_[A12T] (ssRNA)
RNA: B1 RNA with G32A, A41U, A42U
B7: Id_iii_S2_P4E.5_K4.1_C4.3_[T-3C]_H4.1_A4.1_F4.1_T4.2 (ssRNA)
RNA: UUUGAUUAAUAUGAUAUCGUUCUUUCUCCUUGUAUAUUAGUUUCUUUCUCGAUAUCAUAUUAAUCUUU
B8: Id_iii_S2_P4E.7_K4.3_C4.3_H4.3_A4.1_F4.1_T4.2_[G10T] (ssRNA)
RNA: B7 RNA with C28U, U31A, G32C, U33A, A34C, G40U
B9: Id_iii_S2_P4E.8_K4.4_C4.3_[C-2G]_H4.1_A4.2_F4.1_T4.2 (ssRNA)
RNA: B7 RNA with C28U, C29G, A36U
B10: Id_iii_S2_P4E.5_K4.1_C4.3_H4.1_A4.1_F4.1_T4.2_[G10C] (ssRNA)
RNA: B7 RNA with C28U, G40C
B11: Id_iii_S2_P4E.5_K4.1_C4.3_[C-2G]_H4.1_A4.1_F4.1_T4.2 (ssRNA)
RNA: B7 RNA with C28U, C29G
B12: Id_iii_S2_P4E.5_K4.1_C4.3_H4.1_A4.1_F4.1_T4.2_[G10A] (ssRNA)
RNA: B7 RNA with C28U, G40A
B13: Id_iii_S2_P4E.8_K4.4_C4.3_[C-2T]_H4.1_A4.2_F4.1_T4.2 (ssRNA)
RNA: B7 RNA with C28U, C29U, A36U
B14: Id_iii_S2_P4E.8_K4.4_C4.3_H4.1_A4.2_F4.1_T4.2_[T11C] (ssRNA)
RNA: B7 RNA with C28U, A36U, U41C
B15: Id_iii_S2_P4E.6_K4.2_C4.3_H4.2_A4.1_F4.1_T4.2_[G10A] (ssRNA)
RNA: B7 RNA with C28U, G32A, G40A
B16: Id_iii_S2_P4E.6_K4.2_C4.3_H4.2_A4.1_F4.1_T4.2_[G10C] (ssRNA)
RNA: B7 RNA with C28U, G32A, G40C
B17: Id_iii_S2_P4E.5_K4.1_C4.3_H4.1_A4.1_F4.1_T4.2_[T11C] (ssRNA)
RNA: B7 RNA with C28U, U41C
B18: Id_iii_S2_P4E.6_K4.2_C4.3_H4.2_A4.1_F4.1_T4.2_[G10T] (ssRNA)
RNA: B7 RNA with C28U, G32A, G40U
B19: Id_iii_S2_P4E.8_K4.4_C4.3_[T-1A]_H4.1_A4.2_F4.1_T4.2 (ssRNA)
RNA: B7 RNA with C28U, U30A, A36U
B20: Id_iii_S2_P4E.6_K4.2_C4.3_[T-1G]_H4.2_A4.1_F4.1_T4.2 (ssRNA)
RNA: B7 RNA with C28U, U30G, G32A
B21: Id_iii_S2_P4E.6_K4.2_C4.3_[T-3C]_H4.2_A4.1_F4.1_T4.2 (ssRNA)
RNA: B7 RNA with G32A
B22: Id_iii_S2_P4E.5_K4.1_C4.3_[T-1C]_H4.1_A4.1_F4.1_T4.2 (ssRNA)
RNA: B7 RNA with C28U, U30C
B23: Id_iii_S2_P4E.7_K4.3_C4.3_[T-1A]_H4.3_A4.1_F4.1_T4.2 (ssRNA)
RNA: B7 RNA with C28U, U30A, U31A, G32C, U33A, A34C
B24: Id_iii_S2_P4E.7_K4.3_C4.3_H4.3_A4.1_F4.1_T4.2_[T11C] (ssRNA)
RNA: B7 RNA with C28U, U31A, G32C, U33A, A34C, U41C
B25: Id_iii_S2_P4E.5_K4.1_C4.3_[C-2T]_H4.1_A4.1_F4.1_T4.2 (ssRNA)
RNA: B7 RNA with C28U, C29U
B26: Id_iii_S2_P4E.8_K4.4_C4.3_H4.1_A4.2_F4.1_T4.2_[G10C] (ssRNA)
RNA: B7 RNA with C28U, A36U, G40C
B27: Id_iii_S2_P4E.7_K4.3_C4.3_[T-1C]_H4.3_A4.1_F4.1_T4.2 (ssRNA)
RNA: B7 RNA with C28U, U30C, U31A, G32C, U33A, A34C
B28: Id_iii_S2_P4E.6_K4.2_C4.3_[T-1A]_H4.2_A4.1_F4.1_T4.2 (ssRNA)
RNA: B7 RNA with C28U, U30A, G32A
B29: Id_iii_S2_P4E.5_K4.1_C4.3_[C-2A]_H4.1_A4.1_F4.1_T4.2 (ssRNA)
RNA: B7 RNA with C28U, C29A
B30: Id_iii_S2_P4E.5_K4.1_C4.3_[T-1G]_H4.1_A4.1_F4.1_T4.2 (ssRNA)
RNA: B7 RNA with C28U, U30G
B31: Id_iii_S2_P4E.9_K4.5_C4.3_[T-1A]_H4.1_A4.2_F4.2_T4.2 (ssRNA)
RNA: B7 RNA with C28U, U30A, A36U, U38A
B32: Id_iii_S2_P4E.9_K4.5_C4.3_H4.1_A4.2_F4.2_T4.2_[G10C] (ssRNA)
RNA: B7 RNA with C28U, A36U, U38A, G40C
B33: Id_iii_S2_P4E.7_K4.3_C4.3_H4.3_A4.1_F4.1_T4.2_[G10C] (ssRNA)
RNA: B7 RNA with C28U, U31A, G32C, U33A, A34C, G40C
B34: Id_iii_S2_P4E.8_K4.4_C4.3_H4.1_A4.2_F4.1_T4.2_[G10T] (ssRNA)
RNA: B7 RNA with C28U, A36U, G40U
B35: Id_iii_S2_P4E.6_K4.2_C4.3_[C-2T]_H4.2_A4.1_F4.1_T4.2 (ssRNA)
RNA: B7 RNA with C28U, C29U, G32A
B36: Id_iii_S2_P4E.8_K4.4_C4.3_[C-2A]_H4.1_A4.2_F4.1_T4.2 (ssRNA)
RNA: B7 RNA with C28U, C29A, A36U
B37: Id_iii_S2_P4E.9_K4.5_C4.3_[T-1G]_H4.1_A4.2_F4.2_T4.2 (ssRNA)
RNA: B7 RNA with C28U, U30G, A36U, U38A
B38: Id_iii_S2_P4E.5_K4.1_C4.3_H4.1_A4.1_F4.1_T4.2_[G10T] (ssRNA)
RNA: B7 RNA with C28U, G40U
B39: Id_iii_S2_P4E.6_K4.2_C4.3_[C-2G]_H4.2_A4.1_F4.1_T4.2 (ssRNA)
RNA: B7 RNA with C28U, C29G, G32A
B40: Id_iii_S2_P4E.8_K4.4_C4.3_[T-3C]_H4.1_A4.2_F4.1_T4.2 (ssRNA)
RNA: B7 RNA with A36U
B41: Id_iii_S2_P3E.8_K3.4_C3.3_[T-3C]_H3.1_A3.2_F3.1_T3.2 (ssRNA)
RNA: UUUGAUUAAUAUGAUAUCGUUCUUUCUCCUUGUAAAUAUAUUCUUUCUCGAUAUCAUAUUAAUCUUU
B42: Id_iii_S2_P3E.9_K3.5_C3.3_[T-1C]_H3.1_A3.2_F3.2_T3.2 (ssRNA)
RNA: B41 RNA with C28U, U30C, U37A
B43: Id_iii_S2_P3E.9_K3.5_C3.3_H3.1_A3.2_F3.2_T3.2_[A10G] (ssRNA)
RNA: B41 RNA with C28U, U37A, A40G
B44: Id_iii_S2_P3E.8_K3.4_C3.3_[T-3A]_H3.1_A3.2_F3.1_T3.2 (ssRNA)
RNA: B41 RNA with C28A
B45: Id_iii_S2_P3E.9_K3.5_C3.3_[T-1A]_H3.1_A3.2_F3.2_T3.2 (ssRNA)
RNA: B41 RNA with C28U, U30A, U37A
B46: Id_iii_S2_P3E.9_K3.5_C3.3_[T-1G]_H3.1_A3.2_F3.2_T3.2 (ssRNA)
RNA: B41 RNA with C28U, U30G, U37A
B47: Id_iii_S2_P3E.8_K3.4_C3.3_[C-2A]_H3.1_A3.2_F3.1_T3.2 (ssRNA)
RNA: B41 RNA with C28U, C29A
B48: Ib_S1_P5E.1_K5.1_C5.1_H5.1_[A4T]_A5.1_[A7G]_F5.1_T5.1 (ssRNA)
RNA: UCUCUUUGUUUUGUUAUCUCUU
B49: Ib_S1_P5E.1_K5.1_C5.1_H5.1_[A4T]_A5.1_[A7T]_F5.1_T5.1 (ssRNA)
RNA: UCUCUUUGUUUUUUUAUCUCUU
B50: Ib_S1_P5E.1_K5.1_C5.1_H5.1_A5.1_[T5G]_[T6C]_F5.1_T5.1 (ssRNA)
RNA: UCUCUUUGUAGCAUUAUCUCUU
B51: Ib_S1_P5E.1_K5.1_C5.1_H5.1_A5.1_[T5C]_[T6G]_F5.1_T5.1 (ssRNA)
RNA: UCUCUUUGUACGAUUAUCUCUU
B52: Ic_S1_P5E.1_K5.1_C5.1_H5.1_A5.1_[T5C]_[T6A]_F5.1_T5.1 (ssRNA)
RNA: UCUCUUUGUACAAUUAUCUCUU

Molecular target: T1, PUF4 RNA-binding domain
Assay: Mg; RNA-MaP; 20 mM Na-HEPES pH 7.4, 30 mM KOAc, 0.75 mM MgCl2, 0.1% Tween-20, 5% glycerol, 0.1 mg/mL BSA, 2 mM DTT; 25 C; 0.0125-409.6 nM protein
Settings: tags: N-His6-TEV cleaved; C-SNAP kept, Cy3B-labelled; label: tethered on chip by stalled RNA polymerase

| Binder | Kd [nM] |
| --- | --- |
| B1 | 3.88 |
| B2 | 2.58 |
| B3 | 709 |
| B4 | 1.64 |
| B5 | 1.59 |
| B6 | 42.1 |
| B7 | 0.191 |
| B8 | 486 |
| B9 | 1.45 |
| B10 | 0.519 |
| B11 | 0.508 |
| B12 | 0.37 |
| B13 | 0.936 |
| B14 | 1.42 |
| B15 | 10.7 |
| B16 | 5.27 |
| B17 | 0.401 |
| B18 | 3.84 |
| B19 | 1.28 |
| B20 | 10.9 |
| B21 | 3.56 |
| B22 | 0.205 |
| B23 | > 2300 |
| B24 | > 2300 |
| B25 | 1.08 |
| B26 | 2.77 |

| Binder | Kd [nM] |
| --- | --- |
| B27 | > 2300 |
| B28 | 6.83 |
| B29 | 0.601 |
| B30 | 0.201 |
| B31 | 554 |
| B32 | 77.5 |
| B33 | 494 |
| B34 | 0.967 |
| B35 | 20.2 |
| B36 | 1.76 |
| B37 | 502 |
| B38 | 0.203 |
| B39 | 13.3 |
| B40 | 0.923 |
| B41 | 2.54 |
| B42 | 11.9 |
| B43 | 661 |
| B44 | 3.74 |
| B45 | 28.6 |
| B46 | 32.2 |
| B47 | 26.3 |
| B48 | 426 |
| B49 | 142 |
| B50 | 15.3 |
| B51 | 9.71 |
| B52 | 5.07 |
